Target: fibronectin (UniProt P02751)
Assay: SPR

Chain of fibronectin (P02751 32-2477): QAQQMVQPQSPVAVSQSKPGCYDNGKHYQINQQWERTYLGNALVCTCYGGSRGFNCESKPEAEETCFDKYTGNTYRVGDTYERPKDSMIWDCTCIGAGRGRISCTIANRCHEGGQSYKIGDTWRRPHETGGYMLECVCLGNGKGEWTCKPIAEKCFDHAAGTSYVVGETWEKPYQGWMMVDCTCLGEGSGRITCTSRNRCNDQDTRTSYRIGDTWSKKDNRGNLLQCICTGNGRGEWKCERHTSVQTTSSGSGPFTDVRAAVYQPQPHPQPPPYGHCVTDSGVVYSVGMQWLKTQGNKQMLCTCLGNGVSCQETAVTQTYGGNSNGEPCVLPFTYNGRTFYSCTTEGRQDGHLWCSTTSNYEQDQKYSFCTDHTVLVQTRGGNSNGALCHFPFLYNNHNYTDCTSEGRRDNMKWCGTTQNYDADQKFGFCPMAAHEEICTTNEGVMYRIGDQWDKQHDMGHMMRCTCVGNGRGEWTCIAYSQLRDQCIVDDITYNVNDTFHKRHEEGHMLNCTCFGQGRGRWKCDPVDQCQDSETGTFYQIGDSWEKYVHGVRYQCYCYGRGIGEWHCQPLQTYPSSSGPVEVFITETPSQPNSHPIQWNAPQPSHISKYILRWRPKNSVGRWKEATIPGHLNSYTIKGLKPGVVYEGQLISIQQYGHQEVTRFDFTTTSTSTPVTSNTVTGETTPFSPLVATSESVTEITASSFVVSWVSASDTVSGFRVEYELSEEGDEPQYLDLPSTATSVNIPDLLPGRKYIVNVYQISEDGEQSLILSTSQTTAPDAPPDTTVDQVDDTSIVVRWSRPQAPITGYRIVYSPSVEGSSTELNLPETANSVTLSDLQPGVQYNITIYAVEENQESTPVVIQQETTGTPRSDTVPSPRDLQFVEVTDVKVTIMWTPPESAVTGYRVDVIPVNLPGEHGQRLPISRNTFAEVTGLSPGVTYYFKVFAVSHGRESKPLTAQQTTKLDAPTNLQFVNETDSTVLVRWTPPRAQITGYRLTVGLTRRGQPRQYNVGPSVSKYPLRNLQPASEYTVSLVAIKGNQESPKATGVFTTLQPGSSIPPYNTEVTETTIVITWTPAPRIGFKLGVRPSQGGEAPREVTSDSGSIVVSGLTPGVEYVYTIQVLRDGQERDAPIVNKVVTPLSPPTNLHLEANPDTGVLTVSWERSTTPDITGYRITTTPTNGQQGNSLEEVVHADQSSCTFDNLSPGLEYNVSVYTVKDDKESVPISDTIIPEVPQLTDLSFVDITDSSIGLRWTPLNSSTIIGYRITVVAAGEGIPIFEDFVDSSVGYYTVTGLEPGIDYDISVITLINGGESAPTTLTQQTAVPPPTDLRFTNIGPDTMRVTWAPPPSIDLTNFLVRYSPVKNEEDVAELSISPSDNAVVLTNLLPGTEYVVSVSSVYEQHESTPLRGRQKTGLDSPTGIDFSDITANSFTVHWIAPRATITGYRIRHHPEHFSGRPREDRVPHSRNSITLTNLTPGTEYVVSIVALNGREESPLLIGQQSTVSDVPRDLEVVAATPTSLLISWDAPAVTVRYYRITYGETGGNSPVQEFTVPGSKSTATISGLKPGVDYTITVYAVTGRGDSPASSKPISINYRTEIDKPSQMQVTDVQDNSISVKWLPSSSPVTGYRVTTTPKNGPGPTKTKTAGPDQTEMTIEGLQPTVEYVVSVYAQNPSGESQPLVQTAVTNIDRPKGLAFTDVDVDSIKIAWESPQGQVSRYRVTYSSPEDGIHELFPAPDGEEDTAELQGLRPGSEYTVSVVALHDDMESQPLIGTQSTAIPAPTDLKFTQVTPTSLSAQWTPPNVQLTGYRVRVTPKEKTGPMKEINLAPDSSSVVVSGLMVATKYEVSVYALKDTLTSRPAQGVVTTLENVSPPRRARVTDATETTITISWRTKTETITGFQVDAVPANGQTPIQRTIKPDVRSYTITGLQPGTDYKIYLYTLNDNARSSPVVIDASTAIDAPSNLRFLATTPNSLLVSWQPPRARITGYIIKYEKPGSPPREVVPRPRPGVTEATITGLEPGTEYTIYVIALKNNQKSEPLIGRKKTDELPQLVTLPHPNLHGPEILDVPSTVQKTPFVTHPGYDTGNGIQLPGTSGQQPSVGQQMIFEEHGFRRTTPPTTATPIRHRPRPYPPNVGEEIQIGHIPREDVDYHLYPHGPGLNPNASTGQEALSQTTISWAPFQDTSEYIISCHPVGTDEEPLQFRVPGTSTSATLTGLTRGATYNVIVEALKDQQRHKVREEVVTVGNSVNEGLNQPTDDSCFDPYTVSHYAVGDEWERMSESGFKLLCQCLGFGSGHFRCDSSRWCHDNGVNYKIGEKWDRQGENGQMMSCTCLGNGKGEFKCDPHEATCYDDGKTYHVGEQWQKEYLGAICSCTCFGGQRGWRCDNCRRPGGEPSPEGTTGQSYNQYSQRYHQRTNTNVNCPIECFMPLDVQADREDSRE

Row | Substance | Kd [nM] | koff [s⁻¹] | kon [M⁻¹ s⁻¹] | t1/2 (calculated from Koff) [s]
1 | BBK32 (from UniProt O50835 1-354) (natural protein; other documents disagree on this pair) | 19 | 0.1 | 5.21e+06 | 6.93
2 | BB0347 (natural protein; other documents disagree on this pair) | 640 | 0.16 | 265000 | –

— paper PMC3508296
